The target in test [1] is T1, human IL-34 (human, UniProt Q6ZMJ4 21-242, Biotinylated in the CSF1R displacement ELISA (sites not given); secreted homodimer, one monomer chain given.).
T1 sequence: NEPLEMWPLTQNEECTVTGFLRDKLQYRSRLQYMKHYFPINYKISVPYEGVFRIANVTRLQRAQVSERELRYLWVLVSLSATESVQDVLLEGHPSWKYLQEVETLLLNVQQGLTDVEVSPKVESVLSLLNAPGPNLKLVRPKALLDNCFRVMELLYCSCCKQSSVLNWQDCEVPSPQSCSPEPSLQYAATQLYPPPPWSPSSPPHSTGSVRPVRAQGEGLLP
Kind of test: cell-based or functional assay.

Test [2] concerns the target T2, cynomolgus monkey IL-34 (cynomolgus monkey, UniProt G7Q1L3 21-242).
T2 construct: Biotinylated in the CSF1R displacement ELISA; also called cyno IL-34
T2 sequence: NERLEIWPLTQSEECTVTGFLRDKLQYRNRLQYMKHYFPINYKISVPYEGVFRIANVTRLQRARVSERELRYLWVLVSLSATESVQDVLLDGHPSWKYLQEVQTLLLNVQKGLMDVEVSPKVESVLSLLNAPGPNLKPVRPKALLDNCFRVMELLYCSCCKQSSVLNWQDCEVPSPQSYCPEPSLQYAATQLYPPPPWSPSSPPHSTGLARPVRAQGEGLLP
Put plainly: SPR, BIAcore 8K, 37 C, antibody captured on Protein A chip, IL-34 flowed; mean of at least three experiments (SD 2.0E+06 in r12c4). As to the method:
(§1) Binding affinity of anti-IL-34 monoclonal antibodies of the present disclosure to human and/or cynomolgus monkey (cyno) IL-34 may be determined by methods known in the art. Briefly, the binding affinity and kinetics of the antibody are evaluated by surface plasmon resonance using BIAcore™ 8K (Cytiva) at 37° C. […] For each cycle, 200 μL IL-34 is flowed over the immobilized antibody at 100 μL/minute, and then dissociated for 20 minutes. The chip surface is regenerated with 50 μL of glycine buffer at pH 1.5 at a flow rate of 100 μL/minute. The data are fit to a 1:1 Langmiur binding mode to derive kon, koff and to calculate KD.
Background: Surface plasmon resonance follows binding to a sensor surface in real time, without labels.

Test [3] deals with T1, human IL-34. Put plainly: SPR, BIAcore 8K, 37 C, antibody captured on Protein A chip, IL-34 flowed; mean of at least three experiments (SD 2.9E-05 in r10c5). On the procedure: as §1
For test [4], the target named is T1, human IL-34. Kind of test: SPR, BIAcore 8K, 37 C, antibody captured on Protein A chip, IL-34 flowed; mean of at least three experiments (SD 4.4E+05 in r10c4). On the procedure: as §1
For test [5], the target named is T1, human IL-34. Put plainly: SPR, BIAcore 8K, 37 C, antibody captured on Protein A chip, IL-34 flowed; mean of at least three experiments (SD 4.8 in r10c6). As to the method:
as §1

The target of test [6] is T2, cynomolgus monkey IL-34. Kind of test: competition ELISA: displacement of biotinylated cyno IL-34 from plate-bound cynomolgus CSF1R ECD-Fc. On the procedure:
(§2) CSF1R extracellular domain proteins (hCSFIR_Fc commercially available from R&D Cat #329-MR, cynomolgus CSFIR ECD-Fc (AAA is a linker between CSF1R extracellular domain and Fc) (SEQ ID NO: 53)) can be bound to an ELISA plate at concentrations of 30 nM in order to capture soluble biotinylated IL-34 and allowed to bind for one hour. After washing and blocking plate, biotinylated IL-34 may be added, then detected via streptavidin conjugated peroxidase. Concentrations of labeled IL-34 near the 80% binding level (EC₈₀) (3.7 nM) may be used in conjunction with a range of antibody concentrations (0-100 nM) to determine concentration of antibody required to displace IL-34 from CSF1R. After 1 hr incubation, IL-34 bound to CSFIR is detected via streptavidin conjugated peroxidase. The antibodies are assayed (n=2) and the average and standard deviation at each concentration are calculated. The potency of an antibody to displace IL-34 from CSFIR is reported as IC₅₀ (nM) with the calculated confidence interval (CI) in Table 4 and Table 5.
(ELISA stands for enzyme-linked immunosorbent assay.)

Test [7] has as its target T2, cynomolgus monkey IL-34. Kind of test: SPR, BIAcore 8K, 37 C, antibody captured on Protein A chip, IL-34 flowed; mean of at least three experiments (SD 5.3E-05 in r12c5). On the procedure: as §1
The target in test [8] is T2, cynomolgus monkey IL-34. Put plainly: SPR, BIAcore 8K, 37 C, antibody captured on Protein A chip, IL-34 flowed; mean of at least three experiments (SD 16.2 in r12c6). On the procedure: as §1
In test [9] the target is T1, human IL-34. Kind of test: competition ELISA: displacement of biotinylated human IL-34 (3.7 nM) from plate-bound hCSF1R_Fc. As to the method: as §2

B1: Antibody 1 (antibody, human IgG4 S228P, kappa, F234A L235A, V domains shown)
VH: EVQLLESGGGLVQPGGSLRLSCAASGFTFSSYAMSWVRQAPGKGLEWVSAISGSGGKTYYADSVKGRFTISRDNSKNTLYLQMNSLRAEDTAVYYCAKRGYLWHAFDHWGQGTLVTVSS
VL: EIVLTQSPGTLSLSPGERATLSCRASQSVSSLYLAWYQQKPGQAPRLLIYGASSRATGIPDRFSGSGSGTDFTLTISRLEPEDFAVYYCQVVGSSPPFTFGGGTKVEIKR
notes: Fully human anti-IL-34 IgG4 (IgG4 PAA hinge/Fc, C-terminal lysine deleted), kappa light chain; also called Exemplified Antibody 1; exemplified antibody 1
With B1, the “IC50 (ug/ml), neutralization of human IL-34 induced luciferase reporter activity in hCSF1R expressing 293 SRE cells” value in [1] was 0.0458 µg/mL. For the same molecule, the figures for the kon in [2] and in test [4] were 7.9e+06 M⁻¹ s⁻¹ and 8.4e+06 M⁻¹ s⁻¹, respectively. The koff (usually the first-order rate constant of dissociation) worked out at 0.00026 s⁻¹ in test [3] and 0.0003 s⁻¹ in [7]. For the same molecule, the Kd (commonly a measure of binding affinity in units of concentration) in test [5] stood at 0.0312 nM; in [8], 0.0409 nM. Further, the results for the 50% inhibitory concentration (IC50) in test [6] and in test [9] were 0.644 nM and 0.154 nM, respectively.

The values are drawn from patent US20250296997A1 (Eli Lilly, published 2025).
